The results in this text go back to paper PMC7448383.

Some targets named below: G3BP1 WT (human, UniProt Q13283 1-466); G3BP1 S149A (human, UniProt Q13283 1-466, S149A); G3BP1 dRBD (human, UniProt Q13283 1-334, del335-466); G3BP1 dIDR3 (dRGG) (human, UniProt Q13283 1-410, del411-466).
Holding throughout (experiment): EMSA
(In general: In EMSA bound probe runs differently from free probe, usually more slowly.)

G3BP1 S149A, sequence (Q13283 whole entry S149A): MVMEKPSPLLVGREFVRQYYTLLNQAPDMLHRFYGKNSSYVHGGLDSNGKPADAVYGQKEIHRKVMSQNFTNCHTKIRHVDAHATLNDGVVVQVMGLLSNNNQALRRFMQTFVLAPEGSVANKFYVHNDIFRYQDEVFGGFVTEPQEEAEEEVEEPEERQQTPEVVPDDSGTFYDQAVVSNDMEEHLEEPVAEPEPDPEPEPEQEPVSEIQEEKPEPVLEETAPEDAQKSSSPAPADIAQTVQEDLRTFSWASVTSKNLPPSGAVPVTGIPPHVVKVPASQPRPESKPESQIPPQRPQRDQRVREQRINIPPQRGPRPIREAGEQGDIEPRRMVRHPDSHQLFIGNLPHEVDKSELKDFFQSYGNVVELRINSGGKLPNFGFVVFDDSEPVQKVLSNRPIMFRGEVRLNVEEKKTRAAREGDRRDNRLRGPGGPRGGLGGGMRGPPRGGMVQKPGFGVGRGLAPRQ
G3BP1 WT, sequence (Q13283 whole entry): as the sequence (Q13283 whole entry S149A) above, with A149S counted along it
G3BP1 dIDR3 (dRGG), sequence (Q13283 1-410, stated change not applied): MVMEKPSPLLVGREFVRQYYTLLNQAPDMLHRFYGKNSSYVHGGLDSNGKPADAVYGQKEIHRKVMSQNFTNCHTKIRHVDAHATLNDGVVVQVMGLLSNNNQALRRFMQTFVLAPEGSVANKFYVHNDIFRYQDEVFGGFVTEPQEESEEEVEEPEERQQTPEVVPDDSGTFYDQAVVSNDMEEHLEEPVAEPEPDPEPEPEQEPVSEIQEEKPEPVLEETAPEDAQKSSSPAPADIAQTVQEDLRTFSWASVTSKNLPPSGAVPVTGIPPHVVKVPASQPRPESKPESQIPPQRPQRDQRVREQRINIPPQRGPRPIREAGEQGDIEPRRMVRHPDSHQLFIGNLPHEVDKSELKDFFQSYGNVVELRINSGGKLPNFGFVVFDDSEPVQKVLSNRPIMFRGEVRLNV
G3BP1 dRBD, sequence (Q13283 1-334, stated change not applied): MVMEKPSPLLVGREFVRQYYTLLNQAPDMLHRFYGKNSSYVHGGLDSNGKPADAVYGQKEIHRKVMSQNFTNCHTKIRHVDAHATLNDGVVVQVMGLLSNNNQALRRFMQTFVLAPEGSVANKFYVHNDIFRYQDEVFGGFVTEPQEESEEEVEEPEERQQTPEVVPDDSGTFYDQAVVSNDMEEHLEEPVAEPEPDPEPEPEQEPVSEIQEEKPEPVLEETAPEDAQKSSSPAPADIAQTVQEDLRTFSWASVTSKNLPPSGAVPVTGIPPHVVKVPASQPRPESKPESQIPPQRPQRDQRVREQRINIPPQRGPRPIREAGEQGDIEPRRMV

On to AGAUUCCACCACAAAGACCC (ssRNA) [20-base RNA], for which the binding result with G3BP1 WT and in the data set with G3BP1 S149A was “binds” in each case.

B1: 100-base RNA (ssRNA)
RNA: AGCCUGAAUCUCAGAUUCCACCACAAAGACCUCAGCGGGAUCAAAGAGUGCGAGAACAACGAAUAAAUAUUCCUCCCCAAAGGGGACCCAGACCAAUCCG
In the case of B1, the binding result in the data set with G3BP1 dRBD and with G3BP1 dIDR3 (dRGG) was “no binding” throughout.
